The text below walks through data of patent publication US20070190075A1, “Hair growth stimulant composition” (Advangen, Inc. c/o National Institute of Advance Science …, priority 2003, published 2007).

This test relates to C3H/He mouse. Put plainly: Application to mouse after induction of growing stage, with hypodermic FGF-5 injection; shapes and sizes of hair follicles in skin slices. Format: in vivo. Conditions: FGF-5 5 μg hypodermically for 7 days; vs phosphate-buffered saline injected group. The method, then:
The hair on the back of a C3H/He mouse (purchased from Japan SLC, Inc.) of an age of 8 weeks whose hair cycle was in the resting stage was pulled out to induce the growing stage. For 7 days from the day following the induction, FGF-5 of 5 μg was hypodermically injected at the same place every time, and around the injected place, the plant extracts from rose fruit, etc. (50% ethanol solutions), “tea extract” and “green tea extract” described in Example 1 were each further applied in an amount of 0.02 ml/cm^2 once a day. To a mouse of a control group, 50% ethanol was applied once a day in the same manner. Further, as a control to the FGF-5 hypodermic injection group, a mouse group wherein a phosphate-buffered saline solution was injected, was prepared.
On the day following the final application, the mouse was killed by dislocation of cervical vertebrae, and the skin at the applied place was taken. The skin thus taken was subjected to fixation with a 10% formalin aqueous solution, then treatment with an ethanol dehydration series, cleaning with xylene and embedding with paraffin. Using a microtome (available from Yamato), the skin was sliced in such a direction that the hair follicle from the top to the bottom could be completely visible, to prepare a skin slice of 4 μm. The resulting skin slice was extended on a silane-coated slide glass (available from Matsunami). […]

B1: FGF-5: Fibroblast growth factor 5, a cytokine that inhibits hair growth; injected hypodermically as challenge agent (protein, UniProt P12034 21-268, looked up)
Fibroblast growth factor 5: HGEKRLAPKGQPGPAATDRNPRGSSSRQSSSSAMSSSSASSSPAASLGSQGSGLEQSSFQWSPSGRRTGSLYCRVGIGFHLQIYPDGKVNGSHEANMLSVLEIFAVSQGIVGIRGVFSNKFLAMSKKGKLHASAKFTDDCKFRERFQENSYNTYASAIHRTEKTGREWYVALNKRGKAKRGCSPRVKPQHISTHFLPRFKQSEQPELSFTVTVPEKKKPPSPIKPKIPLSAPRKNTNSVKYRLKFRFG
Turning to B1, the “growth of hair follicles after hypodermic FGF-5 injection” value is listed as “growth of the hair follicles was inhibited more than that in the group wherein a phosphate-buffered saline solution had been injected”.
